The source of these data is patent US20260167698A1 (ONO PHARMACEUTICAL, published 2026).

For this assay, the target named is T1, human Allergin-1L (expressed on CHO cells) (human, UniProt Q7Z6M3 20-343).
T1 construct: also called MILR1; human Allergin-1L-expressing CHO cell lines
T1 sequence: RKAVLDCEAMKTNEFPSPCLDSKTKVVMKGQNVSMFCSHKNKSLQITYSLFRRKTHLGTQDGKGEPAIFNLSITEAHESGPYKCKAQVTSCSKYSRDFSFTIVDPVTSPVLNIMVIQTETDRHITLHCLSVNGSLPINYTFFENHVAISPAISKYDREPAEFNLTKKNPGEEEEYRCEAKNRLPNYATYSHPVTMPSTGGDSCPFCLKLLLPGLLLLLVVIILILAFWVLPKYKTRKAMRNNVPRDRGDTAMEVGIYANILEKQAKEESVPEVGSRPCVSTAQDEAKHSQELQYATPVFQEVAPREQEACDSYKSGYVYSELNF
As to the kind of experiment: flow cytometry, binding to Allergin-1L. A general note: Flow cytometry measures light scatter and fluorescence of single cells or particles in a stream.

Usually EC50 stands for the midpoint of the concentration-response curve.

B1: anti-Allergin-1 bispecific antibody #15p_h_opt clone (bispecific antibody, human IgG1, kappa, L234A L235A, N297A)
heavy: EVQLVESGGGLVQPGGSLRLSCAASGFSLTIYTITWVRQAPGKGLEWIGTINSYGNTYYSTWAKGRFTISRDNSKNTVYLQMNSLRAEDTAVYYCARGYVDSDWYLNIWGQGTLVTVSSASTKGPSVFPLAPSSKSTSGGTAALGCLVKDYFPEPVTVSWNSGALTSGVHTFPAVLQSSGLYSLSSVVTVPSSSLGTQTYICNVNHKPSNTKVDKRVEPKSCDKTHTCPPCPAPEAAGGPSVFLFPPKPKDTLMISRTPEVTCVVVDVSHEDPEVKFNWYVDGVEVHNAKTKPREEQYASTYRVVSVLTVLHQDWLNGKEYKCKVSNKALPAPIEKTISKAKGQPREPQVYTLPPSREEMTKNQVSLTCLVKGFYPSDIAVEWESNGQPENNYKTTPPVLDSDGSFFLYSKLTVDKSRWQQGNVFSCSVMHEALHNHYTQKSLSLSPGGGGGSGGGGSDIQMTQSPSSLSASVGDRVTITCQASESIGSLLAWYQQKPGKAPKLLIYRASTLESGVPSRFSGSGSGTDFTLTISSLQPEDFATYYCQSYHYSSSSSYAAFGCGTKVTVLGGGGGSGGGGSGGGGSGGGGSEVQLVESGGGLVQPGGSLRLSCAASGFSLSSHAMSWVRQAPGKCLEWIGTISTIDTTYYASWAKGRFTISRDNSKNTVYLQMNSLRAEDTAVYYCARLSELYTTNSYYSRWGQGTLVTVSS
light: AIQMTQSPSSLSARVGDRVTITCQSSESVYDNNYLSWYQQKPGKAPKLLIYDASRLASGVPSRFSGSGSGTQFTLTISSLQPEDFATYYCLGGYDSSGWYAAFGQGTKVEIKRTVAAPSVFIFPPSDEQLKSGTASVVCLLNNFYPREAKVQWKVDNALQSGNSQESVTEQDSKDSTYSLSSTLTLSKADYEKHKVYACEVTHQGLSSPVTKSFNRGEC
notes: Morrison form: Fab Pro2281, scFv Pro2285
As for B1, the EC50 turned out to be 1.49 nM.
